Assay [1] has as its target T1, Flag-tagged human Gal3 protein on A20 cells (A20 Gal3 cells) (human, UniProt P17931 2-250).
T1 construct: also called A20 cells overexpressing human Gal3; not shown: Flag tag
Nature of the assay: flow cytometry, A20 Gal3 cells, anti-hFc APC. (Flow cytometry measures light scatter and fluorescence of single cells or particles in a stream.)

Assay [2] addresses T2, mouse Gal3 protein (BioLegend) (mouse, UniProt P16110 2-264, limits assumed).
T2 construct: also called mGal3
Nature of the assay: ELISA, mGal3 coated, mouse TIM-3 Fc. On the technique in general: ELISA stands for enzyme-linked immunosorbent assay.

Assay [3] addresses T3, Human Galectin-3 protein (Acro Biosystems, GA3-H5129) (human, UniProt P17931 2-250).
T3 construct: Bought protein; also called hGal3; Gal3; not shown: linker-spaced 6-histidine tag
Nature of the assay: SPR Biacore T200, antibody captured, Galectin-3 analyte. A general note: In SPR one partner is held on a chip, and binding of the other changes the refractive index at the surface.

Assay [4] deals with T3, Human Galectin-3 protein (Acro …). Nature of the assay: ELISA, hGal3 coated, antibody 3 ug/mL, competitor hTIM3.
For assay [5] the target is unchanged. As to the kind of experiment: ELISA, hGal3 coated, competitor hTIM3 (FIG. 24).
Assay [6] addresses T4, hGal3 peptide 1 (human).
T4 construct: also called peptide 1 of Gal3
T4 peptide: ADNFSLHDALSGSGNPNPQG
As to the kind of experiment: dot blot, 20 ug peptide per dot, anti-mIgG HRP.

Assay [7] deals with T5, hGal3 peptide 7 (human).
T5 peptide: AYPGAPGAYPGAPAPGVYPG
Nature of the assay: dot blot, 20 ug peptide per dot, anti-mIgG HRP.

The target of a further assay is T6, hGal3 peptide 4 (human).
T6 peptide: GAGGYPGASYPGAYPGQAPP
Nature of the assay: dot blot, 20 ug peptide per dot, anti-mIgG HRP.

The target of assay [8] is T7, hGal3 peptide 2 (human).
T7 peptide: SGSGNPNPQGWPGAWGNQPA
Nature of the assay: dot blot, 20 ug peptide per dot, anti-mIgG HRP.

Assay [9] deals with T8, mouse Gal3 on mouse cells (B16F10 tumor cells, RAW264.7 macrophages) (mouse, UniProt P16110 2-264).
T8 construct: whole, on cells; also called mGal3; Gal3 on RAW cells
T8 sequence (P16110 2-264, one chain of several): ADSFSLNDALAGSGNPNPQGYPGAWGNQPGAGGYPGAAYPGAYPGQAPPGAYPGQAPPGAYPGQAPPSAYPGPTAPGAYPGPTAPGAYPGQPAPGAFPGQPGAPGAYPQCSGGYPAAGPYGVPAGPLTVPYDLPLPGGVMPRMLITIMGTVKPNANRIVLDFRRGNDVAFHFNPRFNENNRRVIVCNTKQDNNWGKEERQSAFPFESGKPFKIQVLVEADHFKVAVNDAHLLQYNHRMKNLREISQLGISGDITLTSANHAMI
As to the kind of experiment: flow cytometry, RAW cells, IMT001 10 ug/ml.

Assay [10] deals with T4, hGal3 peptide 1. Nature of the assay: peptide ELISA, 20-mer library (Epitope Mapping).
The target in another assay is T9, hGal3 peptide 8 (human).
T9 peptide: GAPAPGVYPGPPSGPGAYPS
Nature of the assay: peptide ELISA, 20-mer library (Epitope Mapping).

Assay [11] addresses T5, hGal3 peptide 7. Nature of the assay: peptide ELISA, 20-mer library (Epitope Mapping).
Assay [12] addresses T7, hGal3 peptide 2. As to the kind of experiment: peptide ELISA, 20-mer library (Epitope Mapping).

T2 sequence (P16110 2-264 limits assumed): as the sequence (P16110 2-264, one chain of several) above

B1: mouse TIM-3 Fc protein (R&D systems) (Fc fusion, UniProt Q8VIM0 20-191, looked up)
chain: RSLENAYVFEVGKNAYLPCSYTLSTPGALVPMCWGKGFCPWSQCTNELLRTDERNVTYQKSSRYQLKGDLNKGDVSLIIKNVTLDDHGTYCCRIQFPGLMNDKKLELKLDIKAAKVTPAQTAHGDSTTASPRTLTTERNGSETQTLVTLHNNNGTKISTWADEIKDSGETIR
notes: also called mTIM-3 Fc; mTIM-3-Fc; not shown: Fc, detected with anti-human Fc / anti-human IgG
Take B1: the binding result in assay [1] and in assay [2] was “binds” in each case.

B2: 12G5.D7 (antibody, V domains shown)
VH: QVQLKQSGAELVRPGASVKLSCKASGYTFTDYYINWVKQRPGQGLEWIARIYPGTGNTDYNEKFKGRATLTAEKSSSTAYMQLSSLTSEDSAVYFCARFAYYYGSGGYFDYWGHGTTLTVSS
VL: DILMTQSPSSMSVSLGDTVSITCHASQGINSNMGWLQQKPGKSFKGLIYHATNLEDGVPSRFSGSGSGADYSLTISSLESEDFADYYCVQYAQFPPTFGSGTKLEIK
notes: murine antibody
B2: in assay [3], the affinity, expressed as Kd, was 1.9 nM. Also, in assay [4], the “GAL3-TIM3 Blocking @ 3 ug/mL” value is 12%. Further, in assay [5], the “reduction of TIM3-GAL3 binding” value was not above 25%.

B3: 24D12.2H9 (antibody, V domains shown)
VH: QVQLKQSGPGLVQPSQSLSITCTVSGFSLTSYGVHWVRQAPGKGLEWLGVIWSGGSTDYNAAFMSRLSISKDNSKSQVFFKMNSLQADDTAIYYCAKSPDGYDVAWFGYWGQGTLVTVSA
VL: DIVMTQSHKFMSTSVGDRVSITCKASQDVRTAVAWYQQKPGQSPKLLIYWASTRHTGVPDRFTGSGSGTDFTLTLSNVQSEDLADYFCQQYSSYPWTFGGGTKLEIK
notes: murine antibody
B3: binding in assay [3] was characterised by a dissociation constant (Kd) of 4.13 nM. For the same molecule, the “GAL3-TIM3 Blocking @ 3 ug/mL” value in [4] was found to be 0%. Also, the “reduction of TIM3-GAL3 binding” value in [5] is not above 25%.

B4: 13G4.2F8 (antibody, V domains shown)
VH: QVQLQQPGAELVKPGASVKLSCKASGYTFTSYWMHWVKQRPGQGLEWIGMIHPNSGSTDYNEKFKNKATLNVDKSSSTAYIQLSSLTSEDSAVYYCTRWGIYYYARDYWGQGTTLTVSS
VL: DIVMTQSQKFMSTSVGERVSITCKASQNVGTNVAWYQQKAGQSLELLIYGASNRHTGVPDRFTGSGSGTDFTLTITNVQSEDMTNYFCEQYSNFPLTFGAGTKLELK
notes: murine antibody
Regarding B4, binding in assay [3] was characterised by a dissociation constant (Kd) of 2.53 nM. In assay [4], the “GAL3-TIM3 Blocking @ 3 ug/mL” value came to 0%. Besides, in [5], the “reduction of TIM3-GAL3 binding” value is not above 25%.

B5: mIMT001 (IMT001) (antibody, V domains shown)
VH: QIQLVQSGPELKKPGETVKISCKASGYTFTNYGMNWVKQAPGKGLKWMGWINTNTGEPTYVEEFKGRFAFSLETSASTAYLQINNLKNEDTATYFCAPYDNFFAYWGQGTLVTVSA
VL: DIVITQDELSNPVTSGESVSISCRSSKSLLYKDGKTYLNWFLQRPGQSPQLLIYLMSTHASGVSDRFSGSGSGTDFTLEISRVKAEDVGVYYCQQLVDYPLTFGAGTKLELK
notes: treated here as one molecule; also called mAb IMT001; Gal3 antibody clone IMT001
Turning to B5, the Kd (commonly the concentration at which binding is half-saturated) in assay [3] came to 1.67 nM. Moreover, the binding result with hGal3 peptide 1 [6], with hGal3 peptide 7 [7], with hGal3 peptide 4 and with hGal3 peptide 2 [8] was “no binding (tested: 1 ug/ml)” in each case. Also, the “GAL3-TIM3 Blocking @ 3 ug/mL” value in [4] was found to be 80%. For the same molecule, in [9], the “MFI, fold over isotype control antibody” value is more than 10 fold.

B6: 20D11.2C6 (antibody, V domains shown)
VH: EVQLQQSGPELVKPGASVKISCKASGYTFTDFYINWVKQSHGKSLEWIGDINPKNGGINYNPKFKIKATLTVDKSSSTSYMDLRGLTSEDSAVYYCTSGYGFPYWGQGTLVTVSA
VL: DIQMNQSPSSLSASLGDTITITCRASQNIYIWLSWYQQKPGNIPKLLIYKASNLHTGVPSRFSGSGSGTDFTLTISTLQPEDIATYFCLQGQSYPLTFGAGTKLEMK
notes: murine antibody
Molecule B6 registered a Kd in assay [3] of 27.8 nM. Further, in assay [4], the “GAL3-TIM3 Blocking @ 3 ug/mL” value is 40%. The binding result in the assay with hGal3 peptide 1 [10], with hGal3 peptide 8 and in the assay with hGal3 peptide 7 [11] was “binds” throughout.

B7: 15G7.2A7 (antibody, V domains shown)
VH: EVQLQQSGPELVKPGASVKISCKASGYTFTDYYMNWVKQSHGKSLEWIGDINPNNGGTNYNQKFKGKATLTVDKSSSTAYMELRSLTSEDSAVYYCTSGYGFPYWGQGTLVTVSA
VL: DIQMNQSPSSLSASLGDTISITCRASQNINIWLSWYQQKPGNIPQLLIYKASNLHTGVPSRFSGSGSGTDFTLTISSLQPEDIATYYCLQGQSYPLTFGAGTKLVMK
notes: murine antibody
Regarding B7, binding in assay [3] was characterised by a dissociation constant (Kd) of 11.3 nM. Moreover, the “GAL3-TIM3 Blocking @ 3 ug/mL” value in [4] was 48%. Also, the binding result in the assay with hGal3 peptide 1 [10], with hGal3 peptide 8 and in the assay with hGal3 peptide 7 [11] was “binds” in each case.

B8: 7D8.2D8 (antibody, V domains shown)
VH: EVQLVESGGGLVKPGGSLKLSCAASGFTFSSYAMSWVRQTPEKRLEWVATISDGGIYTYYPDNVKGRFTISRDNAKNNLFLQMSHLKSEDTAMYYCVRDGGYWGQGTTLTVSS
VL: DVLMTQTPLSLPVSLGDQASISCRSSQSIVHSNGNTYLEWYLQKPGQSPKLLIYKVSNRFSGVPDRFSGSGSGTDFTLKISRVEAEDLGVYYCFQGSHVPLTFGAGTKLELK
notes: murine antibody
B8 showed a Kd in assay [3] of 2.49 nM. The “GAL3-TIM3 Blocking @ 3 ug/mL” value in assay [4] stood at 12%. The binding result in the assay with hGal3 peptide 7 [11] and in the assay with hGal3 peptide 2 [12] was “binds” throughout.

B9: 15F10.2D6 (antibody, V domains shown)
VH: EVQLVESGGGLVKPGGSLKLSCAASGFAFSSYAMSWVRQTPEKRLEWVATISDGGVYTYYTDHVKGRFTISRDNAEDNLYLQMSHLKSEDTAMYYCVRDGGYWGQGTTLTVSS
VL: DVLMTQTPLSLPVSLGDQASISCRSSQSIVHNNGNTYLEWYLQKPGQSPKLLIYKVSNRFSGVPDRFSGSGSGTDFTLKISRVEAEDLGVYYCFQGSHVPLTFGGGTKLELK
notes: murine antibody
In the case of B9, the Kd in [3] stood at 2.06 nM. Besides, in assay [4], the “GAL3-TIM3 Blocking @ 3 ug/mL” value was 19%. The binding result with hGal3 peptide 7 [11] and in the assay with hGal3 peptide 2 [12] was “binds” throughout.
